Experimental data: publication PMC11093223 (2024)

Key:
Assay in all cases: ITC
SLAMF7 = molecular target: T1, SLAMF7 (Homo sapiens (Human), UniProt Q9NQ25)
T1 chain: EDPANTVYSTVE

FAM174C = molecular target: T2, FAM174C (Homo sapiens (Human), UniProt Q9BVV8)
T2 chain: DSDEETVFES

CPD = molecular target: T3, CPD (Homo sapiens (Human), UniProt O75976)
T3 chain: EEETLYSSKH

CIMPR = molecular target: T4, CIMPR (Homo sapiens (Human), UniProt P11717)
T4 chain: EEETDENETEWLM

KIAA0319 = molecular target: T5, KIAA0319 (Homo sapiens (Human), UniProt Q5VV43)
T5 chain: ESEFDSDQDTIF

NPDC1 = molecular target: T6, NPDC1 (Homo sapiens (Human), UniProt Q9NQX5)
T6 chain: DEENEDGDFTVYEC

Kd (SLAMF7): > 100 µM | Kd (FAM174C): 15.7 µM | Kd (CPD): 10.6 µM | Kd (CIMPR): > 100 µM | Kd (KIAA0319): 35.2 µM | Kd (NPDC1): 2.9 µM
B1: TBC1D23 (protein)
chain: DRKEVVNIQTWINKPDIKHHFPCKEVKESGHMFPSHLLVTATHMYCLREILSRKGLAYIQSRQALNSVVKITSKKKHPELITFKYGNSSASGIEILAIERYLIPNAGDATRAIKQQIMKVLDALES
